# Results: patent publication US20150344570A1 (published 2015)
# T1: FcγRIIb extracellular domain with C-terminal His tag (human, UniProt P31994 43-217)
# T1 construct: extracellular domain; also called 2b; FcgRIIb
# T1 sequence (looked up): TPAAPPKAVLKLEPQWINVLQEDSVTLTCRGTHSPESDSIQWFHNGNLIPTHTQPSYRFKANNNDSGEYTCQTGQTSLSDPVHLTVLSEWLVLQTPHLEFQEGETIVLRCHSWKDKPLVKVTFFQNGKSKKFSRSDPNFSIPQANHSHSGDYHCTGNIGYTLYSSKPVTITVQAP
# T2: FcγRIIb extracellular domain with C-terminal His tag (human, UniProt P31994 43-217)
# T2 construct: extracellular domain; Soluble receptor used as analyte in Biacore; also called FcgRIIb
# T2 sequence (looked up): T1 sequence (looked up)
# B1: GpH7-A5/GpH7-B3 variant G236_08L/GpL16-k0 (antibody, human IgG1, kappa)
# heavy 1: not shown
# heavy 2: not shown
# light: DIVMTQSPLSLPVTPGEPASISCQASESLVHSNRNTYLHWYLQKPGQSPQLLIYKVSNRFSGVPDRFSGSGSGTDFTLKISRVEAEDVGVYYCSQNTHVPPTFGQGTKVEIERTVAAPSVFIFPPSDEQLKSGTASVVCLLNNFYPREAKVQWKVDNALQSGNSQESVTEQDSKDSTYSLSSTLTLSKADYEKHKVYACEVTHQGLSSPVTKSFNRGEC
# notes: also called He Ab
# B2: GpH7-A5/GpH7-B3 variant K326_02A/GpL16-k0 (antibody, human IgG1, kappa)
# heavy 1: not shown
# heavy 2: not shown
# light: B1 light
# notes: Heterodimerized IgG1, mutation in the GpH7-B3 chain only; also called He Ab
# B3: GpH7-A5/GpH7-B3 variant H268_10E/GpL16-k0 (antibody, human IgG1, kappa)
# heavy 1: not shown
# heavy 2: not shown
# light: B1 light
# notes: as for B2
# B4: GpH7-A5/GpH7-B3 variant L234_12R/GpL16-k0 (antibody, human IgG1, kappa)
# heavy 1: not shown
# heavy 2: not shown
# light: B1 light
# notes: also called He Ab
# B5: GpH7-A5/GpH7-B3 variant L235_18N/GpL16-k0 (antibody, human IgG1, kappa)
# heavy 1: not shown
# heavy 2: not shown
# light: B1 light
# notes: also called He Ab
# B6: GpH7-A5/GpH7-B3 variant G236_12R/GpL16-k0 (antibody, human IgG1, kappa)
# heavy 1: not shown
# heavy 2: not shown
# light: B1 light
# notes: also called He Ab
# B7: GpH7-A5/GpH7-B3 variant L234_16H/GpL16-k0 (antibody, human IgG1, kappa)
# heavy 1: not shown
# heavy 2: not shown
# light: B1 light
# notes: also called He Ab
# B8: GpH7-A5/GpH7-B3 variant L234_15Y/GpL16-k0 (antibody, human IgG1, kappa)
# heavy 1: not shown
# heavy 2: not shown
# light: B1 light
# notes: also called He Ab; GpH7-A5/GpH7-B3-01-15Y/GpL16-k0
# B9: GpH7-A5/GpH7-B3 variant H268_06M/GpL16-k0 (antibody, human IgG1, kappa)
# heavy 1: not shown
# heavy 2: not shown
# light: B1 light
# notes: also called He Ab
# B10: GpH7-A5/GpH7-B3 variant L235_03V/GpL16-k0 (antibody, human IgG1, kappa)
# heavy 1: not shown
# heavy 2: not shown
# light: B1 light
# notes: also called He Ab
# B11: GpH7-A5/GpH7-B3 variant H268_02A/GpL16-k0 (antibody, human IgG1, kappa)
# heavy 1: not shown
# heavy 2: not shown
# light: B1 light
# notes: as for B2
# B12: GpH7-A5/GpH7-B3 variant H268_09D/GpL16-k0 (antibody, human IgG1, kappa)
# heavy 1: not shown
# heavy 2: not shown
# light: B1 light
# notes: as for B2
# B13: GpH7-A5/GpH7-B3 variant L234_05P/GpL16-k0 (antibody, human IgG1, kappa)
# heavy 1: not shown
# heavy 2: not shown
# light: B1 light
# notes: also called He Ab
# B14: GpH7-A5/GpH7-B3 variant L235_01G/GpL16-k0 (antibody, human IgG1, kappa)
# heavy 1: not shown
# heavy 2: not shown
# light: B1 light
# notes: also called He Ab
# B15: GpH7-A5/GpH7-B3 variant L234_11K/GpL16-k0 (antibody, human IgG1, kappa)
# heavy 1: not shown
# heavy 2: not shown
# light: B1 light
# notes: also called He Ab
# B16: GpH7-A5/GpH7-B3 variant G236_20W/GpL16-k0 (antibody, human IgG1, kappa)
# heavy 1: not shown
# heavy 2: not shown
# light: B1 light
# notes: also called He Ab; GpH7-A5/GpH7-B3-03-20W/GpL16-k0
# B17: GpH7-A5/GpH7-B3 variant L234_07I/GpL16-k0 (antibody, human IgG1, kappa)
# heavy 1: not shown
# heavy 2: not shown
# light: B1 light
# notes: also called He Ab
# B18: GpH7-A5/GpH7-B3 variant H268_01G/GpL16-k0 (antibody, human IgG1, kappa)
# heavy 1: not shown
# heavy 2: not shown
# light: B1 light
# notes: as for B2
# B19: GpH7-A5/GpH7-B3 variant L235_14T/GpL16-k0 (antibody, human IgG1, kappa)
# heavy 1: not shown
# heavy 2: not shown
# light: B1 light
# notes: also called He Ab
# B20: GpH7-A5/GpH7-B3 variant L235_13S/GpL16-k0 (antibody, human IgG1, kappa)
# heavy 1: not shown
# heavy 2: not shown
# light: B1 light
# notes: also called He Ab
# B21: GpH7-A5/GpH7-B3 variant L235_11K/GpL16-k0 (antibody, human IgG1, kappa)
# heavy 1: not shown
# heavy 2: not shown
# light: B1 light
# notes: also called He Ab
# B22: GpH7-A5/GpH7-B3 variant G236_16H/GpL16-k0 (antibody, human IgG1, kappa)
# heavy 1: not shown
# heavy 2: not shown
# light: B1 light
# notes: also called He Ab
# B23: GpH7-A5/GpH7-B3 variant L234_03V/GpL16-k0 (antibody, human IgG1, kappa)
# heavy 1: not shown
# heavy 2: not shown
# light: B1 light
# notes: also called He Ab
# B24: GpH7-A5/GpH7-B3 variant L234_19Q/GpL16-k0 (antibody, human IgG1, kappa)
# heavy 1: not shown
# heavy 2: not shown
# light: B1 light
# notes: also called He Ab
# B25: GpH7-A5/GpH7-B3 variant G236_15Y/GpL16-k0 (antibody, human IgG1, kappa)
# heavy 1: not shown
# heavy 2: not shown
# light: B1 light
# notes: also called He Ab
# B26: GpH7-A5/GpH7-B3 variant L235_19Q/GpL16-k0 (antibody, human IgG1, kappa)
# heavy 1: not shown
# heavy 2: not shown
# light: B1 light
# notes: also called He Ab
# B27: GpH7-A5/GpH7-B3 variant L235_05P/GpL16-k0 (antibody, human IgG1, kappa)
# heavy 1: not shown
# heavy 2: not shown
# light: B1 light
# notes: also called He Ab
# Key:
# [1] = target: T3, FcγRIIIa extracellular domain with C-terminal His tag (human, UniProt P08637 17-208); assay: SPR; ratio of He/Con_3a (FcγRIIIa) to He/Con_2b (FcγRIIb)
# T3 construct: extracellular domain; also called 3a; FcgRIIIa
# T3 sequence (P08637 17-208): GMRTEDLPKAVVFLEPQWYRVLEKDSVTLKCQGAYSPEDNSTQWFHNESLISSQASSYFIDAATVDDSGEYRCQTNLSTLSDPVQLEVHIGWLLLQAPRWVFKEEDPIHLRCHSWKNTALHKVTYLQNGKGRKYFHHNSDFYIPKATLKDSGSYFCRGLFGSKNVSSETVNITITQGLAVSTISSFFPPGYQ
# Procedure: The heterodimerized antibodies He Abs in which one of the H chains was introduced with an alteration were assayed for their binding activities to each activating FcγR and inhibitory FcγR according to the method described in Example 4. […] The activating FcγRs in FIGS. 26, 27, 28, and 29 are FcγRIa, FcγRIIa (R), FcγRIIa (H), and FcγRIIIa, respectively.
# Analysis of interaction between objective antibody and the FcγR was carried out using Biacore T100 (GE Healthcare). HBS-EP+ (GE Healthcare) was used as the running buffer, and the measurement temperature was set to 25° C. Chips produced by immobilizing the antigen peptide by the amine coupling method to a Series S Sencor Chip CM5 (GE Healthcare), or alternatively, chips produced by allowing preliminarily biotinylated antigen peptides to interact with and immobilize onto a Series S Sensor Chip SA (certified) (GE Healthcare) were used. Antibodies of interest were captured onto an antigen peptide-immobilized chip, and allowed to interact to each FcγR diluted with running buffer. To regenerate and repeatedly use the chip, the antibodies captured on the chip were washed off by reacting 10 mM glycine-HCl, pH 1.5.
# [2] = target: T3, FcγRIIIa extracellular domain with …; assay: SPR, binding relative to GpH7-A5/GpH7-B3/GpL16-k0 = 100
# [3] = target: T1, FcγRIIb extracellular domain with …; assay: as above
# [4] = target: T4, FcγRIa extracellular domain with C-terminal His tag (human, UniProt P12314 16-292); assay: ratio He/Con_1a : He/Con_2b (FcγRIa over FcγRIIb), SPR (Biacore)
# T4 construct: extracellular domain; Soluble receptor used as analyte in Biacore; also called FcgRI
# T4 sequence (P12314 16-292): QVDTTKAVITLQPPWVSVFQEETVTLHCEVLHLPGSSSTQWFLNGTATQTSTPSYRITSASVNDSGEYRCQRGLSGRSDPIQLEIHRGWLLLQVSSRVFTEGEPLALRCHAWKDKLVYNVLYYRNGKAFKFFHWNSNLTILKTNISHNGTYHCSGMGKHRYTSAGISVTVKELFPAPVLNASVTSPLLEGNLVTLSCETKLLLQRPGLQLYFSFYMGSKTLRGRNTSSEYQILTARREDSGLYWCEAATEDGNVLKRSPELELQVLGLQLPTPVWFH
# [5] = target: T2, FcγRIIb extracellular domain with …; assay: SPR (Biacore), antibody captured, FcγR as analyte; binding relative to GpH7-A5/GpH7-B3/GpL16-k0 = 100
# [6] = target: T4, FcγRIa extracellular domain with …; assay: as above
Binder,He_3a/2b (IIIa/IIb) [1],He/Con_3a [2],He/Con_2b [3],He_1a/2b (Ia/IIb) [4],He/Con_2b [5] [control = 100],He/Con_1a [6] [control = 100]
B1,1.21,32.5 % of control,26.8 % of control,–,–,–
B2,–,–,–,0.73,139,102
B3,–,–,–,0.48,230,111
B4,1.95,36.9 % of control,18.9 % of control,–,–,–
B5,1.23,67.3 % of control,54.9 % of control,–,–,–
B6,1.84,12.5 % of control,6.8 % of control,–,–,–
B7,1.34,79.5 % of control,59.4 % of control,–,–,–
B8,1.35,130 % of control,96.3 % of control,–,–,–
B9,1.22,80.3 % of control,65.7 % of control,–,–,–
B10,1.48,98 % of control,66.4 % of control,–,–,–
B11,–,–,–,0.65,167,109
B12,–,–,–,0.46,239,110
B13,1.21,88.1 % of control,72.9 % of control,–,–,–
B14,1.66,58.8 % of control,35.4 % of control,–,–,–
B15,1.88,30.5 % of control,16.2 % of control,–,–,–
B16,2.33,135 % of control,58.2 % of control,–,–,–
B17,1.27,103 % of control,80.9 % of control,–,–,–
B18,–,–,–,0.75,144,107
B19,1.62,75.8 % of control,46.8 % of control,–,–,–
B20,1.44,69.6 % of control,48.2 % of control,–,–,–
B21,6.06,38.1 % of control,6.3 % of control,–,–,–
B22,1.54,43.1 % of control,27.9 % of control,–,–,–
B23,1.25,91.4 % of control,73.1 % of control,–,–,–
B24,1.32,79.8 % of control,60.3 % of control,–,–,–
B25,3.06,121 % of control,39.5 % of control,–,–,–
B26,1.65,70.5 % of control,42.6 % of control,–,–,–
B27,1.3,71.1 % of control,54.7 % of control,–,–,–
